Experimental data as given in patent publication US9498540B2, “Cell proliferation inhibitors and conjugates thereof” (NOVARTIS AG, priority 2013, dated 2016).

Tests used:
[1] = Aggregation of immunoconjugates by analytical size exclusion chromatography; format: physicochemical; conditions: conjugate with trastuzumab (TBS); Superdex 200 5/150 GL run in PBS
Experimental: Aggregation was measured by analytical size exclusion chromatography (Superdex 200 5/150 GL run in PBS). It was observed that the extent of aggregation depends on the Linker-Payload and the DAR. […] Table 4 also indicates whether the linking group for each conjugate is stable or cleavable.

[2] = Average drug loading (DAR, drug to antibody ratio) from LC/MS of reduced, deglycosylated conjugates; conditions: conjugate with trastuzumab (TBS); average number of payload molecules per antibody
Text: The immunoconjugates prepared as described above were characterized by LC/MS, as illustrated in FIG. 1 for one immunoconjugate. […] The conjugates were characterized in terms of average drug loading for a sample (DAR, drug to antibody ratio) and aggregation (expressed in %).
The DAR value is extrapolated from LC-MS data for reduced and deglycosylated samples. […] HPLC separates the antibody into light and heavy chains, and separates the heavy chain (HC) and light chain (LC) according to the number of Linker-Payload groups per chain. Mass spectral data enables identification of the component species in the mixture, e.g., LC, LC+1, LC+2, HC, HC+1, HC+2, etc. From the average loading on the LC and HC chains, the average drug to antibody ratio (DAR) can be calculated for an ADC (see FIG. 1B). The DAR for a given conjugate sample represents the average number of drug (payload) molecules attached to a tetrameric antibody containing two light chains and two heavy chains.

CC(C)(C)[C@H](c1nc(-c2cc(F)ccc2F)cn1Cc1ccccc1)N(CC[C@H](N)CF)C(=O)CN [Compound 1]
Aggregation % [1]: 75.8% | DAR [2]: 5

CC(C)(C)[C@H](c1nc(-c2cc(F)ccc2F)cn1Cc1ccccc1)N(CC[C@H](N)CF)C(=O)CO [Compound 2]
Aggregation % [1]: 43.8% | DAR [2]: 4.2

C[C@@H]1CN(C(=O)N(CCCN)[C@@H](c2nc(-c3cc(F)ccc3F)nn2Cc2ccccc2)C(C)(C)C)C[C@H](C)O1 [Compound 3]
Aggregation % [1]: 52.5% | DAR [2]: 5.4

CNC(=O)N(CC[C@H]1COCCN1)[C@@H](c1nc(-c2cc(F)ccc2F)cn1Cc1ccccc1)C(C)(C)C [Compound 4]
Aggregation % [1]: 72.9% | DAR [2]: 4.8

CC(C)(C)[C@H](c1nc(-c2cc(F)ccc2F)cn1Cc1ccccc1)N(CC[C@H]1COCCN1)C(=O)CO [Compound 5]
Aggregation % [1]: 48.7% | DAR [2]: 5.4

CC(C)(C)[C@H](c1nc(-c2cc(F)ccc2F)cn1Cc1ccccc1)N(CC[C@@H]1COCCN1)C(=O)CO [Compound 6]
Aggregation % [1]: 67.2% | DAR [2]: 3

C[C@H](O)C(=O)N(CCCN)[C@@H](c1nc(-c2cc(F)ccc2F)nn1Cc1ccccc1)C(C)(C)C [Compound 7]
Aggregation % [1]: 44.4% | DAR [2]: 2.7

C[C@H](O)C(=O)N(CC[C@@H](N)CF)[C@@H](c1nc(-c2cc(F)ccc2F)nn1Cc1ccccc1)C(C)(C)C [Compound 8]
Aggregation % [1]: 1.4% | DAR [2]: 3.2

CSCCC(=O)N(C[C@@H]1CNC[C@@H]1F)[C@@H](c1nc(-c2cc(F)ccc2F)cn1Cc1cccc(F)c1)C(C)(C)C [Compound 9]
Aggregation % [1]: 84.9% | DAR [2]: 6

CC(C)(C)[C@H](c1nc(-c2cc(F)ccc2F)nn1Cc1ccccc1)N(CC[C@H](N)CF)C(=O)N1CCSCC1 [Compound 10]
Aggregation % [1]: 47% | DAR [2]: 5

C[C@H](O)C(=O)N(CC[C@H](N)CF)[C@@H](c1nc(-c2cc(F)ccc2F)cn1CC1CCOCC1)C(C)(C)C [Compound 11]
Aggregation % [1]: 4% | DAR [2]: 4

C[C@H](O)C(=O)N(C[C@@H]1CNC[C@@H]1F)[C@@H](c1nc(-c2cc(F)ccc2F)cn1Cc1ccccc1)C1CCOCC1 [Compound 12]
Aggregation % [1]: 4.7% | DAR [2]: 5

COC(C)(C)[C@H](c1nc(-c2cc(Cl)ccc2F)cn1Cc1cccc(F)c1)N(C[C@@H]1CN[C@H](CF)C1)C(=O)[C@@H]1CCCO1 [Compound 13]
Aggregation % [1]: 0.7% | DAR [2]: 5.8

C[C@H](O)C(=O)N(C[C@@H]1CNC[C@@H]1F)[C@@H](c1nc(-c2cc(F)ccc2F)cn1Cc1cccc(F)c1)C(C)(C)C [Compound 14]
Aggregation % [1]: 1.5% | DAR [2]: 2.8

O=C(CCS)N(C[C@@H]1CNC[C@@H]1F)[C@@H](c1nc(-c2cc(F)ccc2F)cn1Cc1ccccc1)C1CCOCC1 [Compound 15]
Aggregation % [1]: 3.5% | DAR [2]: 3.7

CC(C)(C)[C@H](c1nc(-c2cc(F)ccc2F)cn1Cc1cccc(F)c1)N(C[C@@H]1CNC[C@@H]1F)C(=O)CSCCN [Compound 16]
Aggregation % [1]: 20.4% | DAR [2]: 7.4

C[C@@H](CO)NC(=O)N(C[C@@H]1CNC[C@@H]1F)[C@@H](c1nc(-c2cc(F)ccc2F)cn1Cc1ccccc1)C1CCOCC1 [Compound 17]
Aggregation % [1]: 55% | DAR [2]: 5.8

NCCSCC(=O)N(C[C@@H]1CNC[C@@H]1F)[C@@H](c1nc(-c2cc(F)ccc2F)cn1Cc1ccccc1)C1CCOCC1 [Compound 18]
Aggregation % [1]: 58.4% | DAR [2]: 3

C[C@@H](CN)NC(=O)N(C[C@@H]1CNC[C@@H]1F)[C@@H](c1nc(-c2cc(F)ccc2F)cn1Cc1ccccc1)C1CCOCC1 [Compound 19]
Aggregation % [1]: 74.6% | DAR [2]: 4.7

C[C@H](O)C(=O)N(CCCN)[C@@H](c1nc(-c2cc(F)ccc2F)cn1Cc1ccccc1)C(C)(C)C [Compound 20]
Aggregation % [1]: 63.5% | DAR [2]: 5.2

CC(C)(C)[C@H](c1nc(-c2cc(F)ccc2F)cn1Cc1ccccc1)N(C[C@@H](F)CN)C(=O)N1CCN(S(C)(=O)=O)CC1 [Compound 21]
Aggregation % [1]: 39.7% | DAR [2]: 4.7

CC(C)(C)[C@H](c1nc(-c2cc(F)ccc2F)cn1Cc1ccccc1)N(CC[C@H](N)CF)C(=O)NO [Compound 22]
Aggregation % [1]: 84.5% | DAR [2]: 6

N[C@H](CF)CCN(C(=O)CO)[C@@H](c1nc(-c2cc(F)ccc2F)cn1Cc1ccccc1)C1CCOCC1 [Compound 23]
Aggregation % [1]: 66.8% | DAR [2]: 3.1

C[C@H](O)C(=O)N(CC[C@H](N)CF)[C@H](c1nc(-c2cc(F)ccc2F)cn1Cc1ccccc1)C1CCS(=O)(=O)CC1 [Compound 24]
Aggregation % [1]: 54.2% | DAR [2]: 1.2

O=C(CI)N(C[C@@H]1CNC[C@@H]1F)[C@@H](c1nc(-c2cc(F)ccc2F)cn1Cc1ccccc1)C1CCOCC1 [Compound 25]
Aggregation % [1]: 60.8% | DAR [2]: 2.2

C[C@@H]1CN(C(=O)N(C[C@@H]2CNC[C@@H]2F)[C@@H](c2nc(-c3cc(F)ccc3F)nn2Cc2cccc(F)c2)C(C)(C)C)C[C@H](C)O1 [Compound 26]
Aggregation % [1]: 33.5% | DAR [2]: 2.6

CNC(=O)N(CC[C@@H](N)CF)[C@@H](c1nc(-c2cc(F)ccc2F)cn1Cc1ccccc1)C(C)(C)C [Compound 27]
Aggregation % [1]: 12.1% | DAR [2]: 3.4

CC(C)(C)[C@H](c1nc(-c2cc(F)ccc2F)nn1Cc1ccccc1)N(CCCN)C(=O)N1CCC[C@H]1CO [Compound 28]
Aggregation % [1]: 63.6% | DAR [2]: 3.6

C[C@H](O)C(=O)N(CC[C@@H](N)CF)[C@@H](c1nc(-c2cc(F)ccc2F)cn1Cc1ccccc1)C(C)(C)C [Compound 29]
Aggregation % [1]: 2.9% | DAR [2]: 2.8

CC(C)(C)[C@H](c1nc(-c2cc(F)ccc2F)cn1Cc1ccccc1)N(CCC1(N)CC1)C(=O)[C@@H]1CCCO1 [Compound 30]
Aggregation % [1]: 2.5% | DAR [2]: 3.9

CC(C)(C)OC(=O)N1C[C@@H](CN(C(=O)CI)[C@@H](c2nc(-c3cc(F)ccc3F)cn2Cc2cccc(F)c2)C(C)(C)C)[C@@H](F)C1 [Compound 31]
Aggregation % [1]: 10.6% | DAR [2]: 5.8

C[C@H](O)C(=O)N(C[C@H]1CCNC1)[C@@H](c1nc(-c2cc(F)ccc2F)cn1Cc1ccccc1)C1CCOCC1 [Compound 32]
Aggregation % [1]: 1.4% | DAR [2]: 5.2

CC(C)(C)[C@@H](NC[C@@H]1CNC[C@@H]1F)c1nc(-c2cc(F)ccc2F)nn1Cc1cccc(F)c1 [Compound 33]
Aggregation % [1]: 29.8% | DAR [2]: 6.3

C[C@H](O)C(=O)N(CC[C@H](N)CF)[C@@H](c1nc(-c2cc(F)ccc2F)cn1CC1(C)COC1)C(C)(C)C [Compound 34]
Aggregation % [1]: 50.5% | DAR [2]: 4.4

C[C@H](O)C(=O)N(CC[C@@H](C)N)[C@@H](c1nc(-c2cc(F)ccc2F)cn1Cc1ccccc1)C(C)(C)C [Compound 35]
Aggregation % [1]: 44.3% | DAR [2]: 3

CC(C)(C)[C@H](c1nc(-c2cc(F)ccc2F)cn1Cc1ccccc1)N(CC[C@H]1COCCN1)C(=O)c1cccnc1 [Compound 36]
Aggregation % [1]: 40% | DAR [2]: 2.6

C[C@H](O)C(=O)N(CC[C@H](N)CF)[C@@H](c1nc(-c2cc(F)ccc2F)cn1Cc1ccccc1)C1CCS(=O)(=O)CC1 [Compound 37]
Aggregation % [1]: 68% | DAR [2]: 5.6

C[C@H](O)C(=O)N(C[C@@H]1CNC[C@@H]1F)[C@@H](c1nc(-c2cc(F)ccc2F)cn1Cc1ccccc1)C1CCS(=O)(=O)CC1 [Compound 38]
Aggregation % [1]: 67.2% | DAR [2]: 5.8

CSCCC(=O)N(C[C@@H]1CNC[C@@H]1F)[C@@H](c1nc(-c2cc(F)ccc2F)cn1Cc1ccccc1)C1CCOCC1 [Compound 39]
Aggregation % [1]: 68.5% | DAR [2]: 3.2

CNC(=O)N(C[C@@H]1CNC[C@@H]1F)[C@@H](c1nc(-c2cc(F)ccc2F)cn1Cc1cccc(F)c1)C(C)(C)C [Compound 40]
Aggregation % [1]: 9.3% | DAR [2]: 4

COC(=O)N(C[C@@H](F)CN)[C@@H](c1nc(-c2cc(F)ccc2F)cn1Cc1ccccc1)C(C)(C)C [Compound 41]
Aggregation % [1]: 23.8% | DAR [2]: 4.5

CC(C)(C)[C@H](c1nc(-c2cc(F)ccc2F)cn1Cc1ccccc1)N(CC[C@H](N)CF)C(=O)N1CCN(S(C)(=O)=O)CC1 [Compound 42]
Aggregation % [1]: 2.4% | DAR [2]: 6

CC(C)(C)[C@H](c1nc(-c2cc(F)ccc2F)nn1Cc1ccccc1)N(CC[C@@H](N)CF)C(=O)N1CCSCC1 [Compound 43]
Aggregation % [1]: 7.7% | DAR [2]: 6.1

CC(C)(C)[C@H](c1nc(-c2cc(F)ccc2F)nn1Cc1ccccc1)N(CCCN)C(=O)N1CCN(S(C)(=O)=O)CC1 [Compound 44]
Aggregation % [1]: 41% | DAR [2]: 4.8

CC(C)(C)[C@@H](NC(=O)c1csc(CN)n1)c1nc(-c2cc(F)ccc2F)cn1Cc1ccccc1 [Compound 45]
Aggregation % [1]: 22% | DAR [2]: 4.8

C[C@H](O)C(=O)N(CC[C@H](N)CF)[C@@H](c1nc(-c2cc(F)ccc2F)cn1Cc1ccccc1)C1CCOCC1 [Compound 46]
Aggregation % [1]: 74.1% | DAR [2]: 4.7

C[C@H](O)C(=O)N(C[C@@H]1CNC[C@@H]1F)[C@H](c1nc(-c2cc(F)ccc2F)cn1Cc1ccccc1)C1CCS(=O)(=O)CC1 [Compound 47]
Aggregation % [1]: 65.2% | DAR [2]: 5.1
